The text below walks through data of publication PMC10157364 (Molecular Cancer Therapeutics, 2023).

Changes are numbered by the printed parent chain. Names may count otherwise.

For assay [1], the target named is T1, mouse MIF treated with 0.2% Proclin300 (oxMIF surrogate) (Mus musculus, UniProt P34884, treated with 0.2% Proclin300 to transform MIF into an oxMIF surrogate).
T1 construct: mouse MIF; also called mouse oxMIF in solution; soluble mouse oxMIF; source: E. coli SHuffle T7 Express lysY, purified (DEAE flow-through, SP cation exchange, SEC or desalting)
As to the kind of experiment: ELISA; quantitative oxMIF ELISA: 15 nmol/L C0008, ON103 or ON203 as capture antibodies; human or mouse MIF in buffers with 0.2% Proclin300 as standard curves; EC50. The settings on record: both partners purified. Background: In an ELISA, binding on a coated surface is turned into a signal by an enzyme label.

For assay [2], the target named is T2, human MIF treated with 0.2% Proclin300 (oxMIF surrogate) (Homo sapiens, UniProt P14174, treated with 0.2% Proclin300 to transform MIF into an oxMIF surrogate).
T2 construct: human MIF; Same protein as m4, after treatment with Proclin300 (3 hours at room temperature for SPR); also called human oxMIF in solution; soluble human oxMIF; source: E. coli SHuffle T7 Express lysY, purified (DEAE flow-through, SP cation exchange, SEC or desalting)
T2 sequence (P14174 whole entry): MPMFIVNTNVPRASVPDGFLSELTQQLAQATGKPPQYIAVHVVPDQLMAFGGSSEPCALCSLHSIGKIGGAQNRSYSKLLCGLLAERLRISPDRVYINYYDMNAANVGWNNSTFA
As to the kind of experiment: SPR; Biacore 3000; antibodies amine-coupled to CM5 chips (about 2,500; 1,500; 1,000 RU); MIF at 42-666 nmol/L in HBS-EP with 0.2% Proclin300 (3 hours, room temperature), 30 uL/minute; Langmuir 1:1 model with mass transfer; mean of flow cells 2-4. The settings on record: both partners purified.

B1: C0008 (antibody, V domains shown)
VH: EVQLLESGGGLVQPGGSLRLSCAASGFTFSIYSMNWVRQAPGKGLEWVSSIGSSGGTTYYADSVKGRFTISRDNSKNTLYLQMNSLRAEDTAVYYCAGSQWLYGMDVWGQGTTVTVSS
VL: DIQMTQSPSSLSASVGDRVTITCRSSQRIMTYLNWYQQKPGKAPKLLIFVASHSQSGVPSRFRGSGSETDFTLTISGLQPEDSATYYCQQSFWTPLTFGGGTKVEIK
notes: human IgG1 wt constant region; variable region shared with BaxB01 (PDB 6FOE); full-length light chain identical to that of imalumab; Human IgG1; also called imalumab; Bax69; source: ExpiCHO, transient expression, purified (Protein A MabSelect PrismA, HiTrap SP HP)
With B1, the binding result in assay [1] and in assay [2] was “binds” each time.

B2: ON103 (antibody, V domains shown)
VH: B1 VH with L5Q, W101Y
VL: B1 VL with M30L, F49Y, A51G, P80S, W93F
notes: heavy-chain variable domain of C0083: the VH of m1 with point mutations; heavy-chain constant region of an IgG1/IgG2 hybrid isotype with two point mutations (S239D/I332E) in the CH2 domain; light chain of C0083: as the light chain of m1 with point mutations in VL; Variable domains of C0083 on an IgG1/IgG2 hybrid constant region; also called second-generation anti-oxMIF mAb; lead candidate; …
On to B2, for which the binding result in assay [1] is “binds”.

B3: ON203 (antibody, V domains shown)
VH: B1 VH with L5Q, W101Y
VL: B1 VL with F49Y, A51G, W93F
notes: heavy-chain variable domain of C0090: the VH of m1 with point mutations; heavy-chain constant region of an IgG1/IgG2 hybrid isotype with two point mutations (S239D/I332E) in the CH2 domain; light chain of C0090: as the light chain of m1 with point mutations in VL; Variable domains of C0090 on an IgG1/IgG2 hybrid constant region; also called second-generation anti-oxMIF mAb; lead candidate; …
Take B3: the binding result in assay [1] was “binds”.
